Assays:
[1] = target: Ash2LN K229E (human, UniProt Q9UBL3 95-280, K229E); assay: EMSA
[2] = target: Ash2LN K225E (human, UniProt Q9UBL3 95-280, K225E); assay: EMSA
Ash2LN K225E, sequence (Q9UBL3 95-280 K225E): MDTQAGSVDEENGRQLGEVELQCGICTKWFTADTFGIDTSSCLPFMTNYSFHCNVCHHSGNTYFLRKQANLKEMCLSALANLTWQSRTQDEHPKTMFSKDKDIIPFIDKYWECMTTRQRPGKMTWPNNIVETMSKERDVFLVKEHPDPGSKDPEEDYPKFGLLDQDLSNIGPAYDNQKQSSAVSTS

Ash2LN K229E, sequence (Q9UBL3 95-280 K229E): as the sequence (Q9UBL3 95-280 K225E) above, with E131K, K135E counted along it

B1: HS2 (dsDNA)
DNA 1: GCAATGCTGAGTCATGATGAGTCATGCTGAGGCTTAGGGTGTGTGC
DNA 2: GCACACACCCTAAGCCTCAGCATGACTCATCATGACTCAGCATTGC
binding result [1]: no binding
binding result [2]: no binding
